{
  "source": "patent US10688077B2",
  "about": "“Inflammasome activation in myelodysplastic syndromes” (H. Lee Moffitt Cancer Center and Research Institute, Inc., priority 2015, dated 2020)",
  "molecules": {"B1": {"name": "CD33-IgG1: S100A9 high-affinity chimeric (CD33-IgG1) decoy receptor (protein)", "chain": "DPNFWLQVQESVTVQEGLCVLVPCTFFHPIPYYDKNSPVHGYWFREGAIISRDSPVATNKLDQEVQEETQGRFRLLGDPSRNNCSLSIVDARRRDNGSYFFRMERGSTKYSYKSPQLSVHVTDLTHRPKILIPGTLEPGHSKNLTCSVSWACEQGTPPIFSWLSAAPTSLGPRTTHSSVLIITPRPQDHGTNLTCQVKFAGAGVTTERTIQLNVTYVPQNPTTGIFPGDGSGKQETRAGVVH", "modifications": "left off: a dimerising Fc or GST"}},
  "key": {"MDS BM-MNC": {"tested_on": "MDS BM-MNC", "assay": "Pyroptosis flow cytometry panel, MDS BM-MNC incubated with autologous BM plasma", "format": "cell-based, human", "description": "For human samples, treated and untreated BM-MNC were incubated overnight in IMDM, supplemented with 10% autologous BM plasma. Subsequently, cells were harvested, washed twice in 1×PBS, and stained with LIVE/DEAD Violet fluorescent reactive dye according to the manufacturer's protocol (Life Technologies). Cells were resuspended in 1×PBS with 2% BSA, and incubated at room temperature for 15 minutes to block non-specific binding. After washing, cells were stained with 30×FAM-FLICA® Caspase-1 and Caspase-3/7 solution at a ratio of 1:30 for 2 hours at 37° C. Cells were washed and stained for cell surface receptors using CD38:PE-CF594, CD33:BV711, CD34:APC (BD Biosciences), and CD71:PE-Cyanine7 (eBioscience). All antibodies were diluted 1:20, and cells were stained for 30 minutes at 4° C. Cells were washed, resuspended in 1× binding buffer, and stained with Annexin-V:Cy5.5 at a dilution of 1:20 for 15 minutes at room temperature (BD Biosciences). 1× binding buffer was added to a final volume of 400 μL. Sample acquisitions were carried out using a BD LSR II flow cytometer and FACSDiva software (BD Biosciences). Calibration of the flow cytometer was carried out prior to each experiment using Rainbow Mid-Range Fluorescent Particles (BD Biosciences). To establish fluorescence compensation settings, ArC Amine Reactive Compensation Beads were used for LIVE/DEAD Violet staining (Life Technologies), and BD CompBead Plus Anti-Mouse Ig κ/Negative Control (BSA) Compensation Plus Particles were used for surface receptor conjugates (BD Biosciences). Data were analyzed using FlowJo 9.7.5 software (FlowJo, LLC, Ashland, Oreg.)."}, "lower-risk MDS BM-MNC": {"tested_on": "lower-risk MDS BM-MNC", "assay": "qPCR of pyroptosis-related gene expression in lower-risk MDS BM-MNC", "format": "cell-based, human", "conditions": "24 hours, versus autologous BM plasma alone, n=5", "description": "PCR RNA was isolated from BM-MNC using the RNeasy Mini Kit (Qiagen). cDNA was produced using the iScript cDNA Synthesis Kit (Bio-Rad). Sequences for primers can be found in Table 1. GAPDH mRNA was used for transcript normalization. cDNA was amplified using the iQ SYBR Green Supermix and the CFX96 Real-Time PCR Detection System (Bio-Rad). PCR conditions were as follows: 10 minutes at 95° C., followed by 40 cycles of amplification (15 seconds at 95° C. and 1 minute at 60° C.). Relative gene expression was calculated using the […] method."}},
  "data": [
    {"molecule": "B1", "values": [
      {"measurement": "reduction of the fraction of pyroptotic cells, maximum lineage-specific change, CD33+ cells", "setting": "MDS BM-MNC; CD33+ immature myeloids, 0.5 μg CD33-IgG1 or 0.1 μM IRAK4 inhibitor, 24 hours, autologous BM plasma, n=4", "value": 68, "unit": "%"},
      {"measurement": "reduction of the fraction of pyroptotic cells, maximum lineage-specific change, CD71+ cells", "setting": "MDS BM-MNC; CD71+ erythroids, 0.5 μg CD33-IgG1 or 0.1 μM IRAK4 inhibitor, 24 hours, autologous BM plasma, n=4", "value": 64, "unit": "%"},
      {"measurement": "fraction of pyroptotic cells across all lineages studied", "setting": "MDS BM-MNC; MDS BM-MNC with autologous BM plasma (FIG. 20)", "value": "marked reduction"},
      {"measurement": "reduction of the fraction of pyroptotic cells, maximum lineage-specific change, progenitor cells", "setting": "MDS BM-MNC; progenitor cells (CD34+CD38+), 0.5 μg CD33-IgG1 or 0.1 μM IRAK4 inhibitor, 24 hours, autologous BM plasma, n=4", "value": 23, "unit": "%"},
      {"measurement": "MDSC fraction", "setting": "MDS BM-MNC; short-term treatment", "value": "significantly reduced"},
      {"measurement": "reduction of the fraction of pyroptotic cells, maximum lineage-specific change, stem cells", "setting": "MDS BM-MNC; stem cells (CD34+CD38-), 0.5 μg CD33-IgG1 or 0.1 μM IRAK4 inhibitor, 24 hours, autologous BM plasma, n=4", "value": 44, "unit": "%"},
      {"measurement": "CASP1 expression", "setting": "lower-risk MDS BM-MNC", "value": "reduced"},
      {"measurement": "CASP3 expression", "setting": "lower-risk MDS BM-MNC", "value": "markedly reduced"},
      {"measurement": "IL-1β expression", "setting": "lower-risk MDS BM-MNC", "value": "reduced"},
      {"measurement": "IL-18 expression", "setting": "lower-risk MDS BM-MNC", "value": "reduced"},
      {"measurement": "NLRP3 expression", "setting": "lower-risk MDS BM-MNC", "value": "reduced"}
    ]}
  ]
}
